Measurements: publication PMC10816697

B1: drosophila GMF (glia maturation factor) (natural protein)
chain: MSDNQICDISNEVLEELKKFRFSKSKNNAALILKVDREKQTVVLDEFIDDISVDELQDTLPGHQPRYVIYTYKMVHDDQRISYPMCFIFYTPRDSQIELQMMYACTKSALQREVDLTRVYEIRELDELTEEWLKAKLK

What was measured:
[1] = target: Skeletal muscle actin (rabbit) (UniProt P68135)
[2] = target: Arp2/3 complex purified from sheep brain (sheep)
[3] = target: Arp2/3 complex purified from sheep brain (sheep); test: TIRF microscopy of single actin filaments in microfluidics; branch dissociation rate against GMF concentration (up to 1500 nM), 0.3 μM G-actin, branches aged 30 min (ADP-Arp2/3 complex), average 1 pN pulling force; Michaelis-Menten fit, rapid equilibrium between GMF and the branch junction assumed; apparent dissociation constant; 25°C, pH 7.0, 50 mM KCl

branch renucleation ratio of branches made with budding yeast Arp2/3 complex on mammalian actin [1] [%] | branch renucleation ratio against GMF concentration (0.3 and 0.6 μM actin): GMF concentration of the half-maximum effect; with 25 nM GMF and 0.6 μM actin the ratio was reduced more than threefold [2] [nM] | Kd [3] [nM] | Molecule
< 10 |  |  | Arp2/3 complex from Saccharomyces cerevisiae (from UniProt P32381 1-391; P47117 1-449)
 | < 25 | 260 | B1
